Test results taken from publication PMC4863989.

Tests used:
[1] = biological target: expanded form (EX) of the P22 virus-like particle (bacteriophage P22) (UniProt P26747); assay: SEC-MALS
[2] = biological target: Dec truncated by the first 11 N-terminal residues (bacteriophage L); assay: SEC
[3] = biological target: expanded form (EX) of the P22 virus-like particle (bacteriophage P22) (UniProt P26747); assay: SPR
[4] = biological target: decoration protein (Dec) from bacteriophage L, wild type with N-terminal 6x histidine tag (bacteriophage L); assay: SEC
[5] = biological target: Dec truncated by the first 20 N-terminal residues (bacteriophage L); assay: SEC

Substance: Dec truncated by the first 11 N-terminal residues (domain or fragment)
- stoichiometry N (Dec monomers per particle) [1]: 214
- stoichiometry N [2]: 3

Substance: decoration protein (Dec) from bacteriophage L, wild type with N-terminal 6x histidine tag (natural protein)
- stoichiometry N (Dec monomers per particle) [1]: 155
- KD2 (weak site, two-site fit) [3]: 1500 nM
- Kd [3]: 24 nM
- half-life of binding at the tight site [3]: > 60 h
- ka1 (tight site, two-site fit) [3]: 11500 M⁻¹ s⁻¹
- ka2 (weak site, two-site fit) [3]: 1980 M⁻¹ s⁻¹
- kd1 (tight site, two-site fit) [3]: 0.000106 s⁻¹
- koff [3]: 0.00033 s⁻¹
- kon [3]: 13800 M⁻¹ s⁻¹
- stoichiometry N [4]: 3

Substance: Dec fused at its C-terminus to the soluble region of murine CD40L (from UniProt P27548 112-260)
- stoichiometry N (Dec monomers per particle) [1]: 51
- KD1 (tight site, two-site fit) [3]: 30.8 nM
- ka1 (tight site, two-site fit) [3]: 6440 M⁻¹ s⁻¹
- kd1 (tight site, two-site fit) [3]: 0.0002 s⁻¹

Substance: Dec fused at its C-terminus to the 21 amino acid CD47 mimic Self-peptide
- stoichiometry N (Dec monomers per particle) [1]: 114
- KD1 (tight site, two-site fit) [3]: 18.3 nM
- ka1 (tight site, two-site fit) [3]: 11200 M⁻¹ s⁻¹

Substance: Dec truncated by the first 20 N-terminal residues (domain or fragment)
- stoichiometry N [5]: 3
